What was measured:
[1] = target: Toxoplasma gondii actin (TgAct1), untagged (Toxoplasma gondii) (UniProt P53476)
[2] = target: Toxoplasma gondii actin (TgAct1), untagged (Toxoplasma gondii) (UniProt P53476); test: epifluorescence microscopy of single filament growth (in vitro actin growth assay); actin growth assay with inclusion of 0.1 mM AMPPNP, compared to MgATP conditions

**Q.** “Toxoplasma gondii actin (TgAct1), untagged (from UniProt P53476 1-376) (natural protein)” was tested. Which phosphate (Pi) release after inducing polymerization of 12 µM TgAct1, MESG assay, 1-hour time course (phosphates per TgAct1 in 1 hour) [1] did it give?
**A.** 3

**Q.** What about the fold change of the critical concentration with 0.1 mM AMPPNP against MgATP conditions [2] of the same substance?
**A.** 2 fold
